These results are taken from publication PMC6343008.

The target of the assay is Globin E1 of the South American lungfish Lepidosiren paradoxa, recombinant (Lepidosiren paradoxa).

For the substance “Globin E1 of the South American lungfish Lepidosiren paradoxa, recombinant (natural protein)”, the cooperativity (n) of the O2 equilibrium curve, pH 7.2, 20 °C is 1.19.
